In publication PMC3919625 (Cell reports, 2013):

Biological target: gp120 from HIV-1 strain SF162 (clade B) (HIV-1 group M subtype B, isolate SF162, UniProt P19550, strain)
Test: SPR

B1: 2G12 IgG monomer (antibody, V domains shown)
VH: EVQLVESGGGLVKAGGSLILSCGVSNFRISAHTMNWVRRVPGGGLEWVASISTSSTYRDYADAVKGRFTVSRDDLEDFVYLQMHKMRVEDTAIYYCARKGSDRLSDNDPFDAWGPGTVVTVSP
VL: VVMTQSPSTLSASVGDTITITCRASQSIETWLAWYQQKPGKAPKLLIYKASTLKTGVPSRFSGSGSGTEFTLTISGLQFDDFATYHCQHYAGYSATFGQGTRVEIK
B1: binds.

B2: 2G12 IgG dimer (antibody, V domains shown)
VH: B1 VH
VL: B1 VL
B2: binds.
